Measurements from patent US20220251182A1, “AGENTS WHICH INHIBIT GADS DIMERIZATION AND METHODS OF USE THEREOF” (Technion Research & Development Foundation Limited, priority 2017, published 2022).
Substitutions are numbered along the chain they refer to. In names and notes the source's numbering stands. One block for each molecule: values may come before it. Square brackets hold non-standard residues; d marks the D form. Ends that are not written are not given here. pY = N[C@@H](Cc1ccc(OP(=O)(O)O)cc1)C(=O)O

T1: monomeric Gads SH2 (Homo sapiens, UniProt O75791)
T1 construct: The SH2 only construct encoded residues Q54-Q153 of Gads, and was tagged at the N-terminus with either MBP or His; made in house; host or cells: E. coli BL21 codon-plus
T1 sequence (O75791 54-153): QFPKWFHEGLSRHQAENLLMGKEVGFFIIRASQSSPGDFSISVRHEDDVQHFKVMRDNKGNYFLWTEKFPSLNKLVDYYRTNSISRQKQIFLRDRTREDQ

T2: N-terminally twin-strep-tagged full length human Gads-GFP F92D (human, UniProt O75791 1-330)
T2 construct: Expressed in dG32 T cells and in Gads-deficient murine BMMCs; also called Gads F92D; F92D-reconstituted; not shown: N-terminal twin-strep tag; C-terminal monomeric GFP (A206K) from pMIGR
T2 sequence: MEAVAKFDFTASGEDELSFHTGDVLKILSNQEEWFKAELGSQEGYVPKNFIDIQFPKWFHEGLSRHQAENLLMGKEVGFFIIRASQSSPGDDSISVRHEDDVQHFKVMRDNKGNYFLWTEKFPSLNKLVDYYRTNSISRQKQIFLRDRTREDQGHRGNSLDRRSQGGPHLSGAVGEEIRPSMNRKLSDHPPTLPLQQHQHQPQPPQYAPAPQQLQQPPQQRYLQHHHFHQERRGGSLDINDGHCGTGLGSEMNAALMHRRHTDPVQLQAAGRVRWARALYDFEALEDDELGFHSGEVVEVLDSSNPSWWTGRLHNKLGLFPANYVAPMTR

B1: MBP-Gads lacking the C-terminal SH3 (ΔCSH3 Gads, Δ274-328) (other)
chain: MEAVAKFDFTASGEDELSFHTGDVLKILSNQEEWFKAELGSQEGYVPKNFIDIQFPKWFHEGLSRHQAENLLMGKEVGFFIIRASQSSPGDFSISVRHEDDVQHFKVMRDNKGNYFLWTEKFPSLNKLVDYYRTNSISRQKQIFLRDRTREDQGHRGNSLDRRSQGGPHLSGAVGEEIRPSMNRKLSDHPPTLPLQQHQHQPQPPQYAPAPQQLQQPPQQRYLQHHHFHQERRGGSLDINDGHCGTGLGSEMNAALMHRRHTDPVQLQAAGRVTR
notes: Deletion of residues 274-328; also called lacking the C-SH3 domain; not shown: N-terminal MBP tag and its linker from pMAL-C5x (NEB)
B2: MBP-Gads lacking the N-terminal SH3 (ΔN-SH3 Gads, Δ2-53) (other, not shown: large carriers; small tags and cut ends)
chain: MQFPKWFHEGLSRHQAENLLMGKEVGFFIIRASQSSPGDFSISVRHEDDVQHFKVMRDNKGNYFLWTEKFPSLNKLVDYYRTNSISRQKQIFLRDRTREDQGHRGNSLDRRSQGGPHLSGAVGEEIRPSMNRKLSDHPPTLPLQQHQHQPQPPQYAPAPQQLQQPPQQRYLQHHHFHQERRGGSLDINDGHCGTGLGSEMNAALMHRRHTDPVQLQAAGRVRWARALYDFEALEDDELGFHSGEVVEVLDSSNPSWWTGRLHNKLGLFPANYVAPMTR
notes: Deletion of residues 2-53; also called Gads ΔN; Gads lacking the N-SH3
B3: MBP-Gads lacking the linker (Δlinker Gads, Δ154-267) (other)
chain: MEAVAKFDFTASGEDELSFHTGDVLKILSNQEEWFKAELGSQEGYVPKNFIDIQFPKWFHEGLSRHQAENLLMGKEVGFFIIRASQSSPGDFSISVRHEDDVQHFKVMRDNKGNYFLWTEKFPSLNKLVDYYRTNSISRQKQIFLRDRTREDQQAAGRVRWARALYDFEALEDDELGFHSGEVVEVLDSSNPSWWTGRLHNKLGLFPANYVAPMTR
notes: Deletion of residues 154-267; also called lacking the linker domain; not shown: N-terminal MBP tag and its linker from pMAL-C5x (NEB)
B4: full length MBP-tagged Gads (MBP-Gads), wild type (other, not shown: large carriers)
chain: T2 sequence with D92F
notes: Purified as monomeric and dimeric SEC fractions; also called full length Gads; Gads-MBP protein
B5: full length MBP-Gads F92A/R109A (other, not shown: large carriers; small tags and cut ends)
chain: T2 sequence with D92A, R109A
notes: Full length human Gads with double mutation; also called full length Gads F92A/R109A
B6: N-terminally twin-strep-tagged full length human Gads-GFP F92A/R109A (other)
chain: T2 sequence with D92A, R109A
notes: Expressed in dG32 T cells; also called Gads F92A/R109A; not shown: N-terminal twin-strep tag; C-terminal monomeric GFP (A206K) from pMIGR
B7: His-tagged Gads SH2 (His-SH2) (protein)
chain: MHHHHHHGSMQFPKWFHEGLSRHQAENLLMGKEVGFFIIRASQSSPGDFSISVRHEDDVQHFKVMRDNKGNYFLWTEKFPSLNKLVDYYRTNSISRQKQIFLRDRTREDQ
B8: MBP-Gads SH2 (SH2 only construct, residues Q54-Q153 of Gads), wild type (protein)
chain: T1 sequence (O75791 54-153)
B9: MBP-Gads SH2 F92A/R109A (other, not shown: large carriers; small tags and cut ends)
chain: MQFPKWFHEGLSRHQAENLLMGKEVGFFIIRASQSSPGDASISVRHEDDVQHFKVMADNKGNYFLWTEKFPSLNKLVDYYRTNSISRQKQIFLRDRTREDQ
notes: Double mutant in the context of MBP-Gads SH2; also called F92A/R109A SH2 mutant
B10: MBP-Gads SH2 R109A (other)
chain: B9 chain with A40F
notes: Point mutant in the context of MBP-Gads SH2; not shown: N-terminal MBP tag and its linker from pMAL-C5x (NEB)
B11: MBP-Gads SH2 R109D (other, not shown: large carriers; small tags and cut ends)
chain: B9 chain with A40F, A57D
notes: Point mutant in the context of MBP-Gads SH2
B12: phospho-LAT (endogenous, TCR-stimulated Jurkat-derived dG32 T cells) (other, UniProt O43561-2 1-233, looked up)
chain: MEEAILVPCVLGLLLLPILAMLMALCVHCHRLPGSYDSTSSDSLYPRGIQFKRPHTVAPWPPAYPPVTSYPPLSQPDLLPIPRSPQPLGGSHRTPSSRRDSDGANSVASYENEEPACEDADEDEDDYHNPGYLVVLPDSTPATSTAAPSAPALSTPGIRDSAFSMESIDDYVNVPESGESAEASLDGSREYVNVSQELHPGAAKTEPAALSSQEAEEVEEEGAPDYENLQELN
modifications: tyrosine-phosphorylated after anti-TCR (C305) stimulation; detected with anti-phospho-LAT (pY132)
notes: Endogenous protein in lysates; also called pLAT; pY132-phosphorylated LAT
B13: MBP-Gads lacking the C-terminal SH3 and linker (ΔC-SH3+linker, Δ154-328) (other)
chain: MEAVAKFDFTASGEDELSFHTGDVLKILSNQEEWFKAELGSQEGYVPKNFIDIQFPKWFHEGLSRHQAENLLMGKEVGFFIIRASQSSPGDFSISVRHEDDVQHFKVMRDNKGNYFLWTEKFPSLNKLVDYYRTNSISRQKQIFLRDRTREDQTR
notes: Deletion of residues 154-328; also called lacking the C-SH3 domain and the linker domain; not shown: N-terminal MBP tag and its linker from pMAL-C5x (NEB)

Experiments:
[1] = target: T1, monomeric Gads SH2; assay: Size exclusion chromatography of monomeric Gads SH2 incubated with LAT peptides; type: binding; settings: 0.7 μM MBP-Gads SH2 monomeric fraction, 5 μM peptide, 15 minutes on ice
Experimental: FIG. 9A is a schematic representation of two possible modes of Gads binding to 2pY-LAT. […] In FIG. 9C, 0.7 μM full length MBP-Gads from the monomeric fraction, was incubated for 15 minutes at 37° C., either alone (solid line), or in the presence of 5 μM 2pY-LAT peptide (SEQ ID NO: 32, dotted line). […] 20 μM MBP-Gads SH2 from the dimeric fraction was incubated for 30 minutes on ice (blue) or at 37° C. for 15 minutes (red, solid line), followed by an additional 15 minutes at 37° C. in the presence of 40 μM of 2pY-LAT (SEQ ID NO: 32, red dotted line); and then resolved by size exclusion chromatography.
Fast protein liquid chromatography (FPLC)—MBP- and His-tagged proteins were resolved by size exclusion chromatography at 12° C., using an ÄKTA FPLC system (GE Healthcare), fitted with Superdex 200 10/300 or 16/60 HiLoad for MBP-tagged proteins or Superdex 75 10/300 for His-tagged proteins, in column buffer containing 20 mM HEPES pH 7.3, 100 mM NaCl, 1 mM EDTA, 10% glycerol.
Two possible modes of Gads binding to 2pY-LAT were envisioned, single and paired (FIG. 9A). To ensure the availability of both modes, a 7-fold molar excess of 2pY-LAT peptide was applied. In the absence of cooperativity, the large molar excess of unbound SH2-binding sites should favor unpaired binding (FIG. 9A, left).

[2] = target: the molecule itself; assay: size exclusion chromatography, self-association
[3] = target: the molecule itself; assay: analytical size exclusion chromatography of the dimeric fraction after incubation at 37°C; self-association
[4] = target: the molecule itself; assay: size exclusion chromatography, Superdex 200 10/300 GL; self-association (dimer)
Experimental: Size-Exclusion Chromatography and Multi-Angle Light Scattering (SEC-MALS)—The average molecular weight of Gads proteins was determined by SEC-MALS. The system consisted of an ÄKTA avant 25, coupled to a UV detector (GE Healthcare) and a miniDAWN triple-angle light-scattering detector (Wyatt Technology). […] Data collection and analysis was performed with Wyatt's ASTRA 6.1.1 software.

[5] = target: the molecule itself; assay: size exclusion chromatography; self-association
[6] = target: B12; assay: streptactin pull-down of twin-strep Gads-GFP from dG32 cell lysates, western blot with anti-pY132-LAT
[7] = nano-DSF of dimeric His-SH2, self-association
[8] = target: pY171-LAT peptide (singly phosphorylated on Y171); assay: isothermal titration calorimetry, 1:1 binding model (Affinimeter), linked-parameter analysis of three repeats
[9] = target: pY171-LAT peptide (singly phosphorylated on Y171); assay: ITC at 25 C, peptide injected into monomeric MBP-Gads SH2; KD = 1/KA, 1:1 model
[10] = nano-DSF of dimeric MBP-Gads SH2, self-association
[11] = target: the molecule itself; assay: size exclusion chromatography; self-association; remark: listed apart in the source
[12] = target: the molecule itself; assay: size exclusion chromatography; self-association; remark: listed apart in the source
[13] = target: T2, N-terminally twin-strep-tagged full …; assay: streptactin pull-down of twin-strep Gads-GFP from dG32 cell lysates, western blot with anti-pY132-LAT

- Gads mobility shift on size exclusion chromatography (paired binding / dimeric form) [1]: dramatic shift towards the dimeric form
Molecule: DDpYVNVPESGESAEASLDGSREpYVNVSQE (DD[pY]VNVPESGESAEASLDGSRE[pY]VNVSQE) [2pY-LAT, 29-residue LAT peptide encompassing tyrosines 171 and 191, doubly phosphorylated]

Molecule: B1
- binding result [2]: binds

Molecule: B2
- binding result [3]: binds

Molecule: B3
- binding result [2]: binds

Molecule: B4
- binding result [4]: binds

Molecule: B5
- binding result [5]: no binding

Molecule: B6
- binding result [6]: no binding

Molecule: B7
- temperature of monomerization (first nano-DSF transition) [7]: 32.5 °C

Molecule: B8
- H [8]: -7.23 kcal/mol
- Kd [9]: 177 nM
- temperature of subtle transition of the dimeric form (nano-DSF) [10]: approximately 33 °C

Molecule: B9
- H [8]: -9.03 kcal/mol
- binding result [11]: no binding
- Kd [9]: 335 nM

Molecule: B10
- binding result [12]: binds

Molecule: B11
- binding result [12]: binds

Molecule: B12
- binding result [13]: no binding

Molecule: B13
- binding result [2]: binds
